Experiments:
[1] = target: YFP-EF-preIQ-IQ (CaV1.3 α1 C-terminal fragment, amino acids 1453–1623) (human) (UniProt Q01668); assay: FRET or BRET
[2] = target: YFP-EF-preIQ-IQ-PCRD (CaV1.3 α1 C-terminal fragment, amino acids 1453–1664) (human); assay: FRET or BRET
Sequence of YFP-EF-preIQ-IQ-PCRD (CaV1.3 α1 C-terminal fragment, amino acids 1453–1664) (human) (Q01668 1453-1664): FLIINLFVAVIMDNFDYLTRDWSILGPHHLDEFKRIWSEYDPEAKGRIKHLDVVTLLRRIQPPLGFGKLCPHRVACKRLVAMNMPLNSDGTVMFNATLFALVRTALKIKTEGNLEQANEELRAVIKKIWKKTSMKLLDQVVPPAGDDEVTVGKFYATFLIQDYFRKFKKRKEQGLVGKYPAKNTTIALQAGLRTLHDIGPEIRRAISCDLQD

Sequence of YFP-EF-preIQ-IQ (CaV1.3 α1 C-terminal fragment, amino acids 1453–1623) (human) (Q01668 1468-1638): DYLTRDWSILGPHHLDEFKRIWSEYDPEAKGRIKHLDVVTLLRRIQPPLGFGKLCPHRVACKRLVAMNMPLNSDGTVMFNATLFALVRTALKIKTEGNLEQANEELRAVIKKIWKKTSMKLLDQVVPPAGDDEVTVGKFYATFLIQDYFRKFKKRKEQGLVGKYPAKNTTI

CFP-labeled calmodulin (from UniProt P0DP23 1-149) (natural protein)
N FRET [1]: 0.185
N FRET [2]: 0.235

Source: paper PMC2475692
